Earlier results in PMC3985900.

Columns and labels:
[1] = target: Asp85 (UniProt position 98, WARYADWLFTT); assay: UV-vis; settings: Resting state, with retinal bound
[2] = target: Glu85 (UniProt position 98, WARYAEWLFTT); assay: UV-vis; settings: Resting state, with retinal bound

Row | Substance | pKa [1] | pKa [2]
1 | Bacteriorhodopsin (native, purple membrane) (Halobacterium salinarum) | ∼3 | 
2 | Bacteriorhodopsin D85E (Halobacterium salinarum; D85E) |  | 9.4
